Results: patent publication US20200040059A1 (ALPINE IMMUNE SCIENCES, published 2020)

Assays:
PD-1-Fc = test: Fortebio (BLI), PD-1-Fc
[1] = target: human ICOS as used for the 'ICOS OD' read-out of Table 14 (human); test: binding read as OD; format not described
Sequence of human ICOS as used for the 'ICOS OD' read-out of Table 14 (human) (Q9Y6W8 whole entry): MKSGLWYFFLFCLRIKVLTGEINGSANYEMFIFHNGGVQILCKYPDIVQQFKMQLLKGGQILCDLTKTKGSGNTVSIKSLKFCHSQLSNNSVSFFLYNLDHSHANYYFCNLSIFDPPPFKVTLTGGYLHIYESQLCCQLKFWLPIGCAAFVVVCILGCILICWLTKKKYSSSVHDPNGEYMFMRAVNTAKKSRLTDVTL

Binder	Fortebio binding to PD-1-Fc Response Units (PD-1-Fc)	ICOS OD [1]	ICOS OD parental ratio [1]
variant PD-L2 IgV-Fc V89D (Fc fusion, not shown: a dimerising Fc or GST; small tags and cut ends) LFTVTVPKELYIIEHGSNVTLECNFDTGSHVNLGAITASLQKVENDTSPHRERATLLEEQLPLGKASFHIPQVQVRDEGQYQCIIIYGDAWDYKYLTLK	0.005 Response Units		
ICOSL variant N52D ECD-Fc fusion (Fc fusion, not shown: no entry of the listing is held) DTQEKEVRAMVGSDVELSCACPEGSRFDLNDVYVYWQTSESKTVVTYHIPQDSSLENVDSRYRNRALMSPAGMLRGDFSLRLFNVTPQDEQKFHCLVLSQSLGFQEVLSVEVTLHVAANFSVPVVSAPHSPSQDELTFTCTSINGYPRPNVYWINKTDNSLLDQALQNDTVFLNMRGLYDVVSVLRIARTPSVNIGCCIENVLLQQNLTVGSQTGNDIGERDKITENPVSTGEKNAAT		1.59 OD	1.85 ratio to WT ICOSL ECD-Fc
ICOSL variant F120S/Y152H/N201S ECD-Fc fusion (Fc fusion, not shown: C220S/R292C/N297G/V302C) and the AAA linker to it) DTQEKEVRAMVGSDVELSCACPEGSRFDLNDVYVYWQTSESKTVVTYHIPQNSSLENVDSRYRNRALMSPAGMLRGDFSLRLFNVTPQDEQKFHCLVLSQSLGFQEVLSVEVTLHVAANSSVPVVSAPHSPSQDELTFTCTSINGYPRPNVHWINKTDNSLLDQALQNDTVFLNMRGLYDVVSVLRIARTPSVNIGCCIESVLLQQNLTVGSQTGNDIGERDKITENPVSTGEKNAAT		0.63 OD	0.73 ratio to WT ICOSL ECD-Fc
ICOSL variant N52S/S130G/Y152C ECD-Fc fusion (Fc fusion, not shown: The AAA linker to it is left out) DTQEKEVRAMVGSDVELSCACPEGSRFDLNDVYVYWQTSESKTVVTYHIPQSSSLENVDSRYRNRALMSPAGMLRGDFSLRLFNVTPQDEQKFHCLVLSQSLGFQEVLSVEVTLHVAANFSVPVVSAPHGPSQDELTFTCTSINGYPRPNVCWINKTDNSLLDQALQNDTVFLNMRGLYDVVSVLRIARTPSVNIGCCIENVLLQQNLTVGSQTGNDIGERDKITENPVSTGEKNAAT		0.16 OD	0.19 ratio to WT ICOSL ECD-Fc
ICOSL variant N52H/N57Y/Q100P ECD-Fc fusion (Fc fusion, not shown: no entry of the listing is held) DTQEKEVRAMVGSDVELSCACPEGSRFDLNDVYVYWQTSESKTVVTYHIPQHSSLEYVDSRYRNRALMSPAGMLRGDFSLRLFNVTPQDEQKFHCLVLSPSLGFQEVLSVEVTLHVAANFSVPVVSAPHSPSQDELTFTCTSINGYPRPNVYWINKTDNSLLDQALQNDTVFLNMRGLYDVVSVLRIARTPSVNIGCCIENVLLQQNLTVGSQTGNDIGERDKITENPVSTGEKNAAT		1.57 OD	1.83 ratio to WT ICOSL ECD-Fc
ICOSL variant N52S/Y146C/Y152C ECD-Fc fusion (Fc fusion, not shown: a dimerising Fc or GST; small tags and cut ends) DTQEKEVRAMVGSDVELSCACPEGSRFDLNDVYVYWQTSESKTVVTYHIPQSSSLENVDSRYRNRALMSPAGMLRGDFSLRLFNVTPQDEQKFHCLVLSQSLGFQEVLSVEVTLHVAANFSVPVVSAPHSPSQDELTFTCTSINGCPRPNVCWINKTDNSLLDQALQNDTVFLNMRGLYDVVSVLRIARTPSVNIGCCIENVLLQQNLTVGSQTGNDIGERDKITENPVSTGEKNAAT		1.26 OD	1.47 ratio to WT ICOSL ECD-Fc
